Experiments:
[1] = target: T1, D2 domain of human IL2Rγ extracellular domain expressed with a C-terminal myc-myc-hexahistidine tag (human); test: SPR Biacore 4000, mAb captured on anti-hFc, 37°C
T1 construct: whole entry is the tagged construct
T1 chain: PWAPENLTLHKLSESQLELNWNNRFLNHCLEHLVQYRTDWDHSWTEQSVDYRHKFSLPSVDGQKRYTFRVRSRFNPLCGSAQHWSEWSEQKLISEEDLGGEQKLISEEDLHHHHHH
Experimental: (§1) Equilibrium dissociation constants (KD values) for IL-2Rγ binding to purified anti-IL2Rγ monoclonal antibodies were determined using a Biacore 4000 instrument equipped with a real-time surface plasmon resonance biosensor. All binding studies were performed in 10 mM HEPES, 150 mM NaCl, 3 mM EDTA, and 0.05% v/v Surfactant Tween-20, pH 7.4 (HBS-ET) running buffer at 25° C. and 37° C. The Biacore sensor surface was first derivatized by amine coupling with a monoclonal mouse anti-human Fc antibody (GE, #BR-1008-39) to capture anti-IL2Rγ monoclonal antibodies.

[2] = target: T1, D2 domain of human IL2Rγ extracellular …; test: SPR Biacore 4000, mAb captured on anti-hFc, 25°C
Experimental: as §1

[3] = target: T2, Human IL2Rγ extracellular domain expressed with a C-terminal myc-myc-hexahistidine tag (human); test: SPR Biacore 4000, mAb captured by anti-hFc, HBS-ET, 25C
T2 construct: also called hIL-2Rg-MMH; hIL-2RG-MMH
T2 chain: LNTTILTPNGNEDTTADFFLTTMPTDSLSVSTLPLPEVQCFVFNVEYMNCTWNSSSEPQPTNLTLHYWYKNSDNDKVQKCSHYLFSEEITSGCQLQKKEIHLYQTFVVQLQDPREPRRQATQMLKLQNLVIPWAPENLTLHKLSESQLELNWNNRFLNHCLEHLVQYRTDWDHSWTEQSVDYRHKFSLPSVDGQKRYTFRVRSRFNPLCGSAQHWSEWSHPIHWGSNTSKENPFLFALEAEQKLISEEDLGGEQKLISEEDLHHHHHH
Experimental: as §1

[4] = target: T2, Human IL2Rγ extracellular domain …; test: SPR Biacore 4000, mAb captured by anti-hFc, HBS-ET, 37C
Experimental: as §1

[5] = target: T3, human IL-2Rγ expressed on cells (human, UniProt P31785 23-369); test: flow cytometry on Jurkat cells, antibody at 10 µg/ml; high end of the range, tied to H4H12889P by Table 9-1
T3 construct: whole, on cells; endogenous receptor on human cells; also called IL-2Rgamma; CD132
T3 sequence (looked up): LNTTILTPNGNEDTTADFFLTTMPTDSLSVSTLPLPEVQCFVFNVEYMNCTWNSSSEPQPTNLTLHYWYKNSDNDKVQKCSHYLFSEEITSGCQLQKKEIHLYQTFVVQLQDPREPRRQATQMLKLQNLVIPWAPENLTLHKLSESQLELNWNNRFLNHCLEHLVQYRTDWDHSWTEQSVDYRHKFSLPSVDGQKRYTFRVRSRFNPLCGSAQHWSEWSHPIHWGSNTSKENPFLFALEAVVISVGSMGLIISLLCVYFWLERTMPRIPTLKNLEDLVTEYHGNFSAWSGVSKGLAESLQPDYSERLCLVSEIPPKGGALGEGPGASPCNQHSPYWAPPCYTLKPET

[6] = target: T3, human IL-2Rγ expressed on cells; test: flow cytometry on NK-92 cells, antibody at 10 µg/ml; high end of the range, tied to H4H12889P by Table 9-1
[7] = target: T3, human IL-2Rγ expressed on cells; test: flow cytometry on NK-92 cells, antibody at 10 µg/ml; low end of the range, tied to H4H12859P by Table 9-1
[8] = target: T3, human IL-2Rγ expressed on cells; test: flow cytometry on NK-92 cells, antibody at 10 µg/ml; low end of the range, tied to H4H13538P by Table 9-2
[9] = target: T3, human IL-2Rγ expressed on cells; test: flow cytometry on NK-92 cells, antibody at 10 µg/ml; high end of the range, tied to 'H4H13841P' (taken as H4H13541P) by Table 9-2
[10] = target: T4, D1 domain of human IL-2Rγ extracellular domain expressed with a C-terminal myc-myc-hexahistidine tag (human); test: SPR Biacore 4000, mAb captured on anti-hFc, 37°C
T4 construct: whole entry is the tagged construct
T4 chain: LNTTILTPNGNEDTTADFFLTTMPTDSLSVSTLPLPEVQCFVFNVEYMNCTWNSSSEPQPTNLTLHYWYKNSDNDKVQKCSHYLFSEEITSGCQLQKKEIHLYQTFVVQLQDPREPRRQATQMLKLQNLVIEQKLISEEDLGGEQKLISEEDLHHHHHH
Experimental: as §1

[11] = target: T4, D1 domain of human IL-2Rγ extracellular …; test: SPR Biacore 4000, mAb captured on anti-hFc, 25°C
Experimental: as §1

B1: H4H12927P2 (antibody, human IgG4 S228P, kappa, V domains shown)
VH: EVQLVESGGGVVRPGGSLRLSCATSGFTFDDYGMSWVRQVPGKGLEWVSSVNRNGGTTDYADSVKGRFTISRDNAKRSLFLQMNSLRAEDTALYHCATGELFFDYWGQGTLVTVSS
VL: not shown
notes: anti-IL2Rγ mAb expressed with human IgG4 Fc
- 100 nM Ag Bound [1]: 2 RU
- 100 nM Ag Bound [2]: 14 RU

B2: H4H12927P2 (antibody, human IgG4 S228P, kappa, V domains shown)
VH: B1 VH
VL: not shown
notes: anti-IL2Rgamma monoclonal antibody expressed with human IgG4 Fc
- 100 nM Ag Bound [3]: 18 RU
- 100 nM Ag Bound [4]: 5 RU

B3: H4H12889P (antibody, human IgG4 S228P, kappa, V domains shown)
VH: EVQLVESGGGLVQPGGSLRLSCAASGFIFSSYEMHWVRQAPGKGLEWISYISSSGTTIYYADSVKGRFTISRDNAKNSLYLHMNSLRAEDTAVYYCTRARITGTFDVFDIWGQGTMVTVSS
VL: DIQMTQSPSSLSASVGDRVTITCRASQSISSYLNWYQQKPGKAPKLLIFAASNLQSGVPSRFSGSRSGTDFTLTISSLQPEDFATYYCQQNYNIPYTFGQGTKLEIKR
notes: anti-IL2Rγ human antibody, human IgG4 Fc; also called REGN7257
- binding ratio (sample MFI over unstained MFI) [5]: 19 ratio
- binding ratio (sample MFI over unstained MFI) [6]: 94 ratio

B4: H4H12859P (antibody, human IgG4 S228P, kappa, V domains shown)
VH: QVQLVQSGAEVKKPGASVRVSCKASGYTFTDYDIHWVRQAPGHGLEWMGWINPNSGGTNYAQKFQGRVTMTRDTSISTVYMDLSRLRSDDTAVYYCARADYSSSYYYYGMDVWGQGTTVTVSS
VL: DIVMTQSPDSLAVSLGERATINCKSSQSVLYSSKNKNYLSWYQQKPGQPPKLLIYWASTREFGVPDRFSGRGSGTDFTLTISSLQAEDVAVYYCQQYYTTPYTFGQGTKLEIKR
notes: anti-IL2Rγ human antibody, human IgG4 Fc
- binding ratio (sample MFI over unstained MFI) [7]: 1 ratio

B5: H4H13538P (antibody, human IgG4 S228P, kappa, V domains shown)
VH: EVQLVESGGGLVQPGGSLGLSCAASGFTFSNYAMSWVRQAPGKGLEWVSAVSGGGGGTYYADSVKGRFTISRDNSKNTVLLQMNSLRAEDTAVYYCARGRTGGLDYWGPGTLVTVSS
VL: DVVMTQSPLSLPVIFGQPASISCRSSQSLVDSDGNTYLNWLQQRPGQSPRRLIYEVSNRDSGVPDRFSGSGSGTDFTLTISRVEAEDVGIYYCMQGTRWPPTFGGGTKVEIKR
notes: as for B4
- binding ratio (sample MFI over unstained MFI) [8]: 1 ratio

B6: H4H12874P (antibody, human IgG4 S228P, kappa, V domains shown)
VH: QVQLVESGGGVVQPGRSLRLSCAASGFNFRNFGMHWVRQAPGKGLEWVAGILYDGSSKYYADSVKDRFTISRDNSKNTLFLQMNSLRAEDTAMYYCAKEEDTAMVPFDSWGPGTLVTVSS
VL: DIQLTQSPSFLSASVGDRVTITCWASQGISSYLAWYQQKPGKAPTLLIYAASTLQSGVPSRFSGSGSGTEFTLTISSLQPEDFASYYCQQLKSYPLTFGGGTKVEIKR
notes: as for B1
- 100 nM Ag Bound [1]: 2 RU
- 100 nM Ag Bound [2]: 10 RU

B7: H4H13541P (antibody, human IgG4 S228P, kappa, V domains shown)
VH: EVQLVESGGGVVRPGGSLRLSCAASGFIFDDYDMSWVRQPPGRGLEWVSGIDWFGGTRGYADSMKGRFTISRDNAKNSLYLQMNSLRVEDTAFYYCARGGAIVGAVTPFDYWGQGTLVTVSS
VL: DIQMTQSPSSLSASVGNRVTLSCRASQSINTYLSWYQQRPGKAPKLLIYAASSLQSGVPSRFSGSGAGTDFTLTISSLQPEDFATYYCQQSYSAPLTFGGGTKVEIKR
notes: anti-IL2Rγ human antibody, human IgG4 Fc; also called H4H13841P
- binding ratio (sample MFI over unstained MFI) [9]: 37 ratio

B8: H4H12926P2 (antibody, human IgG4 S228P, kappa, V domains shown)
VH: QVQLQQSGPGLVKPSQTLSLTCAISGDSVSSNIAAWNWIRLSPSRGLEWLGRTFFRSTWFYDYSLSVKGRITINPDTSKNQFSLHLNSVTPEDAAVYYCARTGRRWSLDYWGQGTLVTVSS
VL: not shown
notes: as for B1
- 100 nM Ag Bound [10]: 2 RU
- 100 nM Ag Bound [11]: 8 RU

B9: H4H12926P2 (antibody, human IgG4 S228P, kappa, V domains shown)
VH: B8 VH
VL: not shown
notes: as for B2
- 100 nM Ag Bound [3]: 13 RU
- 100 nM Ag Bound [4]: 2 RU
